# No end group written: not given here.
# Biological target: FRPR-16 (C. elegans)
# Assay: cell-based or functional assay
row,Binder,"EC50 of receptor activation (aequorin calcium luminescence, transfected CHO-K1/Galpha16 cells)"
1,SPLGTMRF-NH2 [FLP-3-1 (SPLGTMRFamide)],7.4 nM
2,ASEDALFGTMRF-NH2 [FLP-3-5 (ASEDALFGTMRFamide)],72.1 nM
3,SAEPFGTMRF-NH2 [FLP-3-7 (SAEPFGTMRFamide)],39.5 nM
4,SADDSAPFGTMRF-NH2 [FLP-3-8 (SADDSAPFGTMRFamide)],1600 nM
5,NPENDTPFGTMRF-NH2 [FLP-3-9 (NPENDTPFGTMRFamide)],88.3 nM
6,TPLGTMRF-NH2 [FLP-3-2 (TPLGTMRFamide)],31.7 nM
7,EAEEPLGTMRF-NH2 [FLP-3-3 (EAEEPLGTMRFamide)],288 nM
8,NPLGTMRF-NH2 [FLP-3-4 (NPLGTMRFamide)],10.7 nM

# Biological target: NPR-10B (C. elegans)
# Assay: cell-based or functional assay
row,Binder,"EC50 of receptor activation (aequorin calcium luminescence, transfected CHO-K1/Galpha16 cells)"
1,SPLGTMRF-NH2 [FLP-3-1 (SPLGTMRFamide)],262 nM
2,ASEDALFGTMRF-NH2 [FLP-3-5 (ASEDALFGTMRFamide)],1100 nM
3,SAEPFGTMRF-NH2 [FLP-3-7 (SAEPFGTMRFamide)],439 nM
4,NPENDTPFGTMRF-NH2 [FLP-3-9 (NPENDTPFGTMRFamide)],760 nM
5,TPLGTMRF-NH2 [FLP-3-2 (TPLGTMRFamide)],366 nM
6,EAEEPLGTMRF-NH2 [FLP-3-3 (EAEEPLGTMRFamide)],867 nM
7,NPLGTMRF-NH2 [FLP-3-4 (NPLGTMRFamide)],427 nM

# Reference: patent US20220380430A1 (WORCESTER POLYTECHNIC INSTITUTE, published 2022)
